Results as given in patent publication US20230218875A1, “PARTICLE-ATTACHED MICRONEEDLE AND METHOD OF MANUFACTURING THE SAME” (QuadMedicine, Inc., priority 2022, published 2023).

Assay: Adhesion force of ovalbumin particles to PDMS 40 by centrifugation
Format: physicochemical
Description: Ovalbumin particles with an average diameter of 10 μm were attached to a plate with a diameter of 0.5 cm containing a PDMS 40 adhesive layer. Next, the plate was placed in a centrifuge tube. After centrifuging the tube at 27,000 g (Centrifuge, 1730R, LABOGENE, South Korea) for 10 min, the plate was weighed using a high-precision balance (Satorius SE2-F, Gottingen, Germany), and the amount of ovalbumin particles separated from the surface of PDMS 40 during centrifugation was calculated.

B1: ovalbumin particles: Ovalbumin particles with an average diameter of 10 μm attached to a plate containing a PDMS 40 adhesive layer (protein, UniProt P01012 2-386, looked up)
Ovalbumin: GSIGAASMEFCFDVFKELKVHHANENIFYCPIAIMSALAMVYLGAKDSTRTQINKVVRFDKLPGFGDSIEAQCGTSVNVHSSLRDILNQITKPNDVYSFSLASRLYAEERYPILPEYLQCVKELYRGGLEPINFQTAADQARELINSWVESQTNGIIRNVLQPSSVDSQTAMVLVNAIVFKGLWEKAFKDEDTQAMPFRVTEQESKPVQMMYQIGLFRVASMASEKMKILELPFASGTMSMLVLLPDEVSGLEQLESIINFEKLTEWTSSNVMEERKIKVYLPRMKMEEKYNLTSVLMAMGITDVFSSSANLSGISSAESLKISQAVHAAHAEINEAGREVVGSAEAGVDAASVSEEFRADHPFLFCIKHIATNAVLFFGRCVSP
modifications: particles
notes: Ovalbumin particles with an average diameter of 10 μm attached to a plate containing a PDMS 40 adhesive layer
- Initial ovalbumin particles remaining on the surface of PDMS 40 (27,000 g for 10 min, pressure 0.2 N/cm^2, average diameter 10 μm): 96%
- Vertical adhesion force between ovalbumin particles and PDMS 40 (from centrifugation at 27,000 g): more than 0.2 N/cm^2
